B1: TRIM9 (parent)
chain: PRNSCITCPQCHRSLILDDRGLRG
B2: ZNF232 (parent)
chain: GKAYGWCSELIRHRRVHARKEPSH

Variants of: B1
Assay: protein stability index of a GFP-peptide fusion (GPS, HEK-293T) (PSI 1-6); higher = more stable
Conditions: c terminus: a fixed tail appended
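Also: lentivirally expressed fusions sorted by FACS into six bins by GFP to DsRed ratio, PSI derived from sequencing read proportions per bin multiplied by bin number.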

Variant | protein stability index
PRNSCITCPQCHRSLILDDRGLRT | 2.23
PRNSCITCPQCHRSLILDDRGLRQ | 2.28
PRNSCITCPQCHRSLILDDRGLRR | 1.22
PRNSCITCPQCHRSLILDDRGLRW | 1.76
PRNSCITCPQCHRSLILDDRGLRV | 2.32
PRNSCITCPQCHRSLILDDRGLRS | 2.35
PRNSCITCPQCHRSLILDDRGLRY | 1.84

Variants of: B2
Assay: as above
Conditions: c terminus: a fixed tail appended

Variant | protein stability index
GKAYGVCSELIRHRRVHARKEPSH | 3.59
GKAYGCCSELIRHRRVHARKEPSH | 2.6
GKAYGLCSELIRHRRVHARKEPSH | 2.95
GKAYGECSELIRHRRVHARKEPSH | 3.35
GKAYGACSELIRHRRVHARKEPSH | 3.49
GKAYGDCSELIRHRRVHARKEPSH | 4.05
GKAYGFCSELIRHRRVHARKEPSH | 3.65
GKAYGPCSELIRHRRVHARKEPSH | 4.61
GKAYGHCSELIRHRRVHARKEPSH | 3.67
GKAYGGCSELIRHRRVHARKEPSH | 3.96
GKAYGICSELIRHRRVHARKEPSH | 3.27
GKAYGKCSELIRHRRVHARKEPSH | 4.02
GKAYGQCSELIRHRRVHARKEPSH | 3.81
GKAYGNCSELIRHRRVHARKEPSH | 3.98
GKAYGRCSELIRHRRVHARKEPSH | 3.7
GKAYGYCSELIRHRRVHARKEPSH | 2.95
GKAYGMCSELIRHRRVHARKEPSH | 3.82
GKAYGSCSELIRHRRVHARKEPSH | 3.65
GKAYGTCSELIRHRRVHARKEPSH | 3.69
GKAYGWCSGLIRHRRVHARKEPSH | 3.03
GKAYGWCSHLIRHRRVHARKEPSH | 3.25
GKAYGWCSFLIRHRRVHARKEPSH | 1.59

Variant | protein stability index
GKAYGWCSPLIRHRRVHARKEPSH | 3.24
GKAYGWCSCLIRHRRVHARKEPSH | 1.76
GKAYGWCSSLIRHRRVHARKEPSH | 3.02
GKAYGWCSLLIRHRRVHARKEPSH | 2.73
GKAYGWCSNLIRHRRVHARKEPSH | 2.84
GKAYGWCSRLIRHRRVHARKEPSH | 2.83
GKAYGWCSTLIRHRRVHARKEPSH | 3.53
GKAYGWCSDLIRHRRVHARKEPSH | 3.12
GKAYGWCSALIRHRRVHARKEPSH | 2.74
GKAYGWCSYLIRHRRVHARKEPSH | 2.18
GKAYGWCSWLIRHRRVHARKEPSH | 1.81
GKAYGWCSQLIRHRRVHARKEPSH | 2.64
GKAYGWCSKLIRHRRVHARKEPSH | 2.96
GKAYGWCSMLIRHRRVHARKEPSH | 1.66
GKAYGWCSILIRHRRVHARKEPSH | 2.51
GKAYGWCSVLIRHRRVHARKEPSH | 1.21
GEAYGWCSELIRHRRVHARKEPSH | 2.82
GVAYGWCSELIRHRRVHARKEPSH | 2.79
GWAYGWCSELIRHRRVHARKEPSH | 1.85
GHAYGWCSELIRHRRVHARKEPSH | 3.01
GSAYGWCSELIRHRRVHARKEPSH | 2.84
GYAYGWCSELIRHRRVHARKEPSH | 3.5

Variant | protein stability index
GLAYGWCSELIRHRRVHARKEPSH | 2.61
GQAYGWCSELIRHRRVHARKEPSH | 3.26
GIAYGWCSELIRHRRVHARKEPSH | 2.72
GGAYGWCSELIRHRRVHARKEPSH | 3.54
GDAYGWCSELIRHRRVHARKEPSH | 3.2
GFAYGWCSELIRHRRVHARKEPSH | 2.62
GMAYGWCSELIRHRRVHARKEPSH | 2.55
GRAYGWCSELIRHRRVHARKEPSH | 2.79
GNAYGWCSELIRHRRVHARKEPSH | 2.62
GPAYGWCSELIRHRRVHARKEPSH | 3.44
GAAYGWCSELIRHRRVHARKEPSH | 3.3
GTAYGWCSELIRHRRVHARKEPSH | 3.12
GCAYGWCSELIRHRRVHARKEPSH | 2.41
GKARGWCSELIRHRRVHARKEPSH | 3.6
GKAAGWCSELIRHRRVHARKEPSH | 3.54
GKAEGWCSELIRHRRVHARKEPSH | 3.62
GKASGWCSELIRHRRVHARKEPSH | 4.18
GKADGWCSELIRHRRVHARKEPSH | 4.04
GKAIGWCSELIRHRRVHARKEPSH | 3.06
GKAMGWCSELIRHRRVHARKEPSH | 3.07
GKAGGWCSELIRHRRVHARKEPSH | 3.77
GKAWGWCSELIRHRRVHARKEPSH | 2.62

Variant | protein stability index
GKAPGWCSELIRHRRVHARKEPSH | 4.12
GKALGWCSELIRHRRVHARKEPSH | 2.76
GKAFGWCSELIRHRRVHARKEPSH | 2.84
GKAQGWCSELIRHRRVHARKEPSH | 3.75
GKAKGWCSELIRHRRVHARKEPSH | 3.62
GKAHGWCSELIRHRRVHARKEPSH | 3.63
GKAVGWCSELIRHRRVHARKEPSH | 3.04
GKANGWCSELIRHRRVHARKEPSH | 3.83
GKATGWCSELIRHRRVHARKEPSH | 3.19
GKACGWCSELIRHRRVHARKEPSH | 2.2
GKAYGWCHELIRHRRVHARKEPSH | 2.69
GKAYGWCTELIRHRRVHARKEPSH | 3.25
GKAYGWCRELIRHRRVHARKEPSH | 2.99
GKAYGWCGELIRHRRVHARKEPSH | 2.5
GKAYGWCAELIRHRRVHARKEPSH | 2.67
GKAYGWCWELIRHRRVHARKEPSH | 1.97
GKAYGWCQELIRHRRVHARKEPSH | 3.36
GKAYGWCLELIRHRRVHARKEPSH | 2.45
GKAYGWCKELIRHRRVHARKEPSH | 2.6
GKAYGWCCELIRHRRVHARKEPSH | 2.14
GKAYGWCFELIRHRRVHARKEPSH | 1.97

Reference: the supplement of paper PMC10567573
